B1: TPR 5TU (parent)
chain: GGAUCUUCUCGAUCUAACAAAAAAGACAAAUCUGCCACAAAGCUUGAGAGCAUCUUCGGAUGCAGAGGCGGCAGCCUUCGGUGGCGCGAUAGCGCCAACGUUCUCAACUAUGACACGCAAAACGCGUGCUCCGUUGAAUGGAGUUUAUCAUG

Variants at the floor of the assay were thinned out. Some results are limits rather than exact numbers.

In the data set the parent is B1. Kind of data set: polymerase ribozyme fitness, log enrichment relative to wild type (log ratio); higher = more active; in vitro selection for triplet polymerase activity. The method, boiled down: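 Streptavidin-bead capture of gel-excised extended constructs, followed by RT-PCR, closed a single triplicate in vitro selection round. That round began by annealing PCR-built, transcribed mutant libraries of each subunit of a heterodimeric triplet polymerase ribozyme with a biotinylated primer, the partner subunit and triplets, then incubating them frozen at −7 °C. After Illumina sequencing of inputs and outputs, genotypes needed ≥10 input reads and ≥1 read per output. Fitness is the base-2 logarithm of genotype enrichment over wild-type enrichment, using inverse-variance-weighted replicate averages.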
G34A U56A G92C: the “polymerase ribozyme fitness (log ratio)” value is -1.65.
As to U33C A49G U77G U130A G133U U135A, the “polymerase ribozyme fitness (log ratio)” value is no more than -4.2.
The figure for C35A A66G C87U U127C is no more than -4.2; for U33C C54A G83C C108G U146A C149A it is no more than -4.2.
Next, C35A C43U C87A G128A: no more than -4.2.
As for C32U U33G C38U C54U U77A A107U, the “polymerase ribozyme fitness (log ratio)” value was -3.74.
Next, U33A G74A: no more than -4.2.
Consider U33C C36A U55A G83A A89G A142U U148C, for which the “polymerase ribozyme fitness (log ratio)” value is no more than -4.2.
Next, C32U G50C C54G A73G G88A C96G: no more than -4.2; U33G A41U G46C C54G G62C G70U C96A A120G G124U: no more than -4.2; G34U C36G G59C U148C: no more than -4.2.
The figure for U33A C57U C79G A89U A97G is no more than -4.2; for U33C C43U G126U it is no more than -4.2; for C32U A41C G58U A60C C75G C96U C114A it is no more than -4.2.
For the variant G34U G58C C69U A91G G128A U135C, the “polymerase ribozyme fitness (log ratio)” value is no more than -4.2.
The figure for G34U A40G C69U G80U C99U A107G U139G G140U U148C is no more than -4.2.
The figure for U33A A41C U53C C57U G65A A66C G67C G80C is no more than -4.2; for U33A U44A G46U G59A C93G C103U U104A U135A C149G it is no more than -4.2; for C32U G62A C76G G84U C116U G140A C149U it is no more than -4.2.
In the case of U33C A49C C57U U145A U151A, the “polymerase ribozyme fitness (log ratio)” value was no more than -4.2.
As for U33A U56A U90A A122C U151G, the “polymerase ribozyme fitness (log ratio)” value is no more than -4.2.
For C35A C95A A107G G143U, the “polymerase ribozyme fitness (log ratio)” value is -3.95.
The figure for U33G A52G A73G G92C A107U C114U C125U U134C G141C is no more than -4.2; for U33G G80C G92A C131A U151A it is -4.15.
G34A C95U G136A: the “polymerase ribozyme fitness (log ratio)” value is -0.0966.
Next, G34A C57A C87U A89U G94U C96A U104A C105G A110U G126U: no more than -4.2; U33A C75A A110U: no more than -4.2; G34U C75G G81U C87U A120U: -3.98.
Take U33G A37U A60C C75U G94U C108U: the “polymerase ribozyme fitness (log ratio)” value was no more than -4.2.
The figure for U33G U56A A91U C116U is -3.95; for U33A G92A it is no more than -4.2.
Next, U33G C116U: -2.7; U33C A97G: -2.92.
For U33G U44A A142G, the “polymerase ribozyme fitness (log ratio)” value was no more than -4.2.
Next, G34C A41G C54A U135C U145G: no more than -4.2; U33A G46U C75A G140C: no more than -4.2; C32U U61G: -3.73.
In the case of C32U U61C, the “polymerase ribozyme fitness (log ratio)” value was -3.52.
As to C32U C63U A91U C96U A113U G124C, the “polymerase ribozyme fitness (log ratio)” value is no more than -4.2.
The figure for U33G G48C U53A C93U C149U is no more than -4.2; for C32G G70C it is no more than -4.2.
The figure for U33G G81C G83A C87G C105A A120C A121G G143A U148A is no more than -4.2.
For the variant C32G G59C G71C C85A G88A U151A, the “polymerase ribozyme fitness (log ratio)” value is no more than -4.2.
Turning to C32U C96G A142U, the “polymerase ribozyme fitness (log ratio)” value was -3.35.
Next, C32U C125U: -2.22; U33A A39G U90A U130A: no more than -4.2; G34C A66G G86U A107C G141U: no more than -4.2.
Take C32G G92A U111G: the “polymerase ribozyme fitness (log ratio)” value is -4.13.
Consider C32U G81U G84A G94C, for which the “polymerase ribozyme fitness (log ratio)” value was -3.46.
The figure for G34A C79U A107C C108G C116G is no more than -4.2; for G34C A49C A52G U61G C87U C95A it is -4.12; for C32U C85U A89C A138C it is no more than -4.2.
The figure for C35A A52C C79G C96U U127C C149A is no more than -4.2; for C32U G50A A52G G58A C87G C118G it is no more than -4.2; for U33G U56A U90A U101G C108G A119U U135C G136A it is no more than -4.2.
On to G34C U55G G65A, for which the “polymerase ribozyme fitness (log ratio)” value is no more than -4.2.
Next, U33C U56C G59C C79A C95U C123A G140U: no more than -4.2; G34U C76U A119U: -3.19; C35A C76A C93A U148C: no more than -4.2.
The figure for U33C G59A A60U U145G is -4.
The figure for C32U G71C C103G A113G A121G U134C is no more than -4.2.
Take U33C G81U C93G G143U: the “polymerase ribozyme fitness (log ratio)” value was -4.06.
Next, U33A C76G G84C C85G C87G A89G G136C U145A: no more than -4.2; C32U G42U C79G C129A A138G U146C: no more than -4.2.
Next, C32U A49U: -4.14.
The figure for C32U A49C is -4.13; for C32U C36A U55A U77G A91U G140U it is -3.95.
As for G34U A41G G81A G84U C87A C93A A110G, the “polymerase ribozyme fitness (log ratio)” value was no more than -4.2.
As for U33G C43U A60U G88A U109G U135G G143A, the “polymerase ribozyme fitness (log ratio)” value is -4.09.
Regarding U33A C85U, the “polymerase ribozyme fitness (log ratio)” value is -3.79.
In the case of C32G G83A C85G C108G G124A U135G, the “polymerase ribozyme fitness (log ratio)” value is no more than -4.2.
In the case of U33G G67U C85G C96G A122G G140A, the “polymerase ribozyme fitness (log ratio)” value was no more than -4.2.
G34U U77G C87A A113C: the “polymerase ribozyme fitness (log ratio)” value was no more than -4.2.
Take U33A A47C C99A: the “polymerase ribozyme fitness (log ratio)” value is no more than -4.2.
Next, U33G G46C G71A U78G U90G A110C U127C G141C: no more than -4.2; U33G U55C C76U G86U C105A C116U: no more than -4.2.
The figure for C32U C43U G92A U146G is no more than -4.2; for U33G U61A it is -3.72.
The figure for G34C C76A C95U A142C is no more than -4.2; for G34C G59A G112U A115U C125U it is no more than -4.2.
In the case of C32G U55A G58A G68A C85U G88C C93A A106G C116A U135A, the “polymerase ribozyme fitness (log ratio)” value is no more than -4.2.
Next, C32U C85A C99G G133C U139G: no more than -4.2.
The figure for U33C A39C G88A C118G C123A is no more than -4.2; for G34A G84A U134G it is -2.82.

Values taken from the RNAGym collection of RNA variant scans (doi:10.1073/pnas.2313332121).
